From US20250000991A1 (Eli Lilly, published 2025)
Where a chain is given by its changes, count along the chain named.

T1: human Nectin-4-eGFP on T24 cells (clone 3) (human, UniProt Q96NY8 32-510)
T1 sequence: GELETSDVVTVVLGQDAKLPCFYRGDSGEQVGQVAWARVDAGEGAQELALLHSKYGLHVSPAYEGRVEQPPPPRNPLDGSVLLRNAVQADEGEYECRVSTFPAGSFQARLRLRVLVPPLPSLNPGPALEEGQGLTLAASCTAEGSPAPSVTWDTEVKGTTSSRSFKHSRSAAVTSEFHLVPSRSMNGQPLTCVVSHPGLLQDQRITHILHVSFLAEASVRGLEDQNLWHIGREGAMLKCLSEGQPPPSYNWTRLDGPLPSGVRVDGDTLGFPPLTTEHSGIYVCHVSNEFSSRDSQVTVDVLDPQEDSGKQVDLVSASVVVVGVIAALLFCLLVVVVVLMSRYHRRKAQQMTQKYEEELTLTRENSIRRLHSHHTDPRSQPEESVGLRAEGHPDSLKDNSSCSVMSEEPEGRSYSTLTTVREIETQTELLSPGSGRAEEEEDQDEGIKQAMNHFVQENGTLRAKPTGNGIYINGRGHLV

T2: human nectin-4 on cells (human, UniProt Q96NY8 32-510)
T2 sequence: T1 sequence

T3: recombinant HIS-tagged human nectin-4 (Acro Biosystems Cat. No. NE4-H52H3) (human, UniProt Q96NY8 32-349)
T3 construct: Bought protein; not shown: HIS tag
T3 sequence: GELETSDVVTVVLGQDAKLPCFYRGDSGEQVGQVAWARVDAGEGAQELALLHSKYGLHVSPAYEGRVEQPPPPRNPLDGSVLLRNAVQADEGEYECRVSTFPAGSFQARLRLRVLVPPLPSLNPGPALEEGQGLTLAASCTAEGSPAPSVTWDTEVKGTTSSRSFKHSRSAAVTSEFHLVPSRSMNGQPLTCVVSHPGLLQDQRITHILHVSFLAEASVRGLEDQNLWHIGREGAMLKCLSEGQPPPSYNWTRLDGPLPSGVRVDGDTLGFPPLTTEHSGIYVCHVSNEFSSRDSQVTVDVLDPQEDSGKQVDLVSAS

T4: recombinant HIS-tagged cyno nectin-4 (Acro Biosystems Cat. No. NE4-C52H4) (cyno, UniProt A0A2K5WES1 32-349)
T4 construct: Bought protein; HIS tag not described
T4 sequence: T3 sequence with V39A, I230V

T5: recombinant HIS-tagged rat nectin-4 (R&D Systems Cat. No. 9997-N4-050) (rat, UniProt D3ZET1 31-348)
T5 construct: Bought protein; HIS tag not described
T5 sequence: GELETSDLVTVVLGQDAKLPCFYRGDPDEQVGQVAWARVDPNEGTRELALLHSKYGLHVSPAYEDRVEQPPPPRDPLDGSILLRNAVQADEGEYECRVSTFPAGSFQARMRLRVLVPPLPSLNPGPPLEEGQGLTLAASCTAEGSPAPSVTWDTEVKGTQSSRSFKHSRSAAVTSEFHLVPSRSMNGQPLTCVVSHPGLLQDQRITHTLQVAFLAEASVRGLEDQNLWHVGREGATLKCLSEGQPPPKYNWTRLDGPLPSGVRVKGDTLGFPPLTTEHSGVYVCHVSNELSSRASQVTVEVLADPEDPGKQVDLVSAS

B1: Ab8 ADC (Ab8 conjugated as in Formula XI, DAR of 8) (antibody, human IgG1, lambda, L234A L235A, V domains shown)
VH: QVQLVQSGAEVKKPGASVKVSCKASGYTFTSYYIHWVRQAPGQGLEWMGIINPISGRTSSAQKFQGRVTMTRDTSTSTVYMELSSLRSEDTAVYYCAKEGVGGELLRAFDIWGQGTLVTVSS
VL: QSVLTQPPSVSEAPRQRVTISCSGSSSNIGNNAVNWYQQLPGKAPKLLIYYDDLLPSGVSDRFSGSKSGTSASLAISGLQSEDEADYYCAAWDDSLNGFVFGGGTKLTVLG
modifications: camptothecin analog linker-payload of Formula XI on cysteine thiols after full reduction, DAR of 8 per antibody; positions not given
notes: Antibody-drug conjugate of Ab8; also called Ab8 (ADC column)
B2: Ab7 ADC (Ab7 conjugated as in Formula XI, DAR of 8) (antibody, human IgG1, lambda, L234A L235A, V domains shown)
VH: QVQLVQSGAEVKKPGASVKVSCKASGYTFTNYYMHWVRQAPGQGLEWMGIINPSSGSASYAQKFQGRVTMTRDTSTSTVYMELSSLRSEDTAVYYCAREGVGRDILQAFDIWGQGTLVTVSS
VL: B1 VL with F99H
modifications: camptothecin analog linker-payload of Formula XI on cysteine thiols after full reduction, DAR of 8 per antibody; positions not given
notes: Antibody-drug conjugate of Ab7; also called Ab7 (ADC column)
B3: Ab1a ADC (Ab1a conjugated as in Formula XI, DAR of 8) (antibody, human IgG1, kappa, L234A L235A, V domains shown)
VH: QVQLVQSGAQVKKPGASVKVSCKASGYTFTGYYIHWVRQAPGQGLEWMGWINPNSGGTNYAQKFQGRVTMTRDTSISTAYMELSRLRSDDTAVYFCAREDWDFDYWGQGTLVTVSS
VL: EIVLTQSPGTLSLSPGERATLSCRTSQSVSSSYLAWYQQKPGQAPRLLIYGASNRATDIPDRFSGSGSGTDFTLTINRLEPEDFAVYYCQQYGSSPITFGQGTRLEIKR
modifications: camptothecin analog linker-payload of Formula XI on cysteine thiols after full reduction, DAR of 8 per antibody; positions not given
notes: Antibody-drug conjugate of Ab1a; also called Ab1a (ADC column)
B4: enfortumab (antibody, V domains shown)
VH: EVQLVESGGGLVQPGGSLRLSCAASGFTFSSYNMNWVRQAPGKGLEWVSYISSSSSTIYYADSVKGRFTISRDNAKNSLSLQMNSLRDEDTAVYYCARAYYYGMDVWGQGTTVTVSS
VL: DIQMTQSPSSVSASVGDRVTITCRASQGISGWLAWYQQKPGKAPKFLIYAASTLQSGVPSRFSGSGSGTDFTLTISSLQPEDFATYYCQQANSFPPTFGGGTKVEIKR
B5: Ab3 ADC (Ab3 conjugated as in Formula XI, DAR of 8) (antibody, human IgG1, kappa, L234A L235A, V domains shown)
VH: EVQLVESGGGLVKPGGSLRLSCAASGFNLNHYNMNWVRQAPGKGLEWVSSVSSGGGFRYYADSVRGRFTISRDNAKNSLYLQMNSLRAEDTAVYYCARGAVFHDAFDIWGQGTLVTVSS
VL: DIQLTQSPSFLSASVGDRVTITCRASQDISSYLAWYQQKPGKAPKLLIYVASTLQSGVPSRFSGSGSGTEFTLTISSLQPEDFATYYCQQINSYPFTFGQGTKVEIKR
modifications: camptothecin analog linker-payload of Formula XI on cysteine thiols after full reduction, DAR of 8 per antibody; positions not given
notes: Antibody-drug conjugate of Ab3; also called Ab3 (ADC column)
B6: Ab5 ADC (Ab5 conjugated as in Formula XI, DAR of 8) (antibody, human IgG1, kappa, L234A L235A, V domains shown)
VH: QVQLVQSGAEVKKPGASVKVSCKASGYTFTSYYVHWVRQAPGQGLEWMGIINPSIISTSYAQKFQARVTMTRDTSTSTVYMELSSLRSEDTAVYYCARGLNFDAFDIWGQGTLVTVSS
VL: B5 VL with D28G, V50A, I91L, S93N
modifications: camptothecin analog linker-payload of Formula XI on cysteine thiols after full reduction, DAR of 8 per antibody; positions not given
notes: Antibody-drug conjugate of Ab5; also called Ab5 (ADC column)
B7: Ab2 (antibody, human IgG1, kappa, L234A L235A, V domains shown)
VH: EVQLVESGGGLVQPGGSLRLSCAASGFTFSSYDMHWVRQATGKGLEWVSAIGTVGDTYYPGSVKGRFTISRENAKNSLYLQMNSLRAGDTAVYYCAREWNGMDVWGQGTTVTVSS
VL: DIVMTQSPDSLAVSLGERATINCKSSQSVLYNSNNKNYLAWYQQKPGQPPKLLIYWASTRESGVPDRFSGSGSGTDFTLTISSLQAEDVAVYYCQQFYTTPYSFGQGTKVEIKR
notes: Unconjugated antibody; also called Antibody 2; nectin-4 antibody Ab2

Tests used:
[1] = target: T1, human Nectin-4-eGFP on T24 cells (clone …); experiment: cell-based or functional assay
human nectin-4 on cells [2] = target: T2, human nectin-4 on cells; experiment: cell-based or functional assay
[3] = target: T3, recombinant HIS-tagged human nectin-4 …; experiment: SPR Biacore 8K+, ADC captured via anti-human Fc, nectin-4 analyte, 37 C;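 note: Nectin-4 injected over captured ADC at 0 to 600 nM for 2 min association, then 10 min dissociation, with a reference flow cell lacking ADC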
[4] = target: T4, recombinant HIS-tagged cyno nectin-4 …; experiment: as above
[5] = target: T5, recombinant HIS-tagged rat nectin-4 …; experiment: as above
[6] = target: T3, recombinant HIS-tagged human nectin-4 …; experiment: SPR Biacore 8K+, ADC captured via anti-human Fc, nectin-4 analyte, 37 C; replicate 1 of 2
[7] = target: T3, recombinant HIS-tagged human nectin-4 …; experiment: SPR Biacore 8K+, ADC captured via anti-human Fc, nectin-4 analyte, 37 C; replicate 2 of 2
human nectin-4 on cells [8] = target: T2, human nectin-4 on cells; experiment: flow cytometry, NCI-H1781 cells (low endogenous nectin-4)
human nectin-4 on cells [9] = target: T2, human nectin-4 on cells; experiment: flow cytometry, SUM190PT cells (high endogenous nectin-4)
human nectin-4 on cells [10] = target: T2, human nectin-4 on cells; experiment: flow cytometry, differentiated normal human epidermal keratinocytes (HEKα)

Binder	% activity (max GFP signal loss compared to enfortumab mAb (100%)) [1]	EC50 (nM) of nectin-4-eGFP signal loss [1]	Cytotoxicity IC50, NCI H1781 cells (human nectin-4 on cells [2])	Cytotoxicity IC50, T24 Nectin-4 clone 108 cells (human nectin-4 on cells [2])	Kd [3]	koff [3]	kon [3]	Kd [4]	koff [4]	kon [4]	Kd [5]	koff [5]	kon [5]	also measured
B1	125%	2.48 nM	0.0572 nM	0.088 nM	48.7 nM	0.0338 s⁻¹	694000 M⁻¹ s⁻¹	42.1 nM	0.0524 s⁻¹	1.25e+06 M⁻¹ s⁻¹	34.4 nM	0.0165 s⁻¹	482000 M⁻¹ s⁻¹	–
B2	126%	2.61 nM	0.0543 nM	0.0801 nM	–	–	–	39.2 nM	0.0464 s⁻¹	1.18e+06 M⁻¹ s⁻¹	73.1 nM	0.0296 s⁻¹	404000 M⁻¹ s⁻¹	Kd [6]: 41.2 nM; koff [6]: 0.0243 s⁻¹; kon [6]: 591000 M⁻¹ s⁻¹; Kd [7]: 37.6 nM; koff [7]: 0.0212 s⁻¹; kon [7]: 564000 M⁻¹ s⁻¹
B3	150%	2.3 nM	0.0981 nM	0.0729 nM	–	–	–	83.9 nM	0.026 s⁻¹	310000 M⁻¹ s⁻¹	180 nM	0.0453 s⁻¹	252000 M⁻¹ s⁻¹	Kd [6]: 142 nM; koff [6]: 0.0402 s⁻¹; kon [6]: 283000 M⁻¹ s⁻¹; Kd [7]: 72.5 nM; koff [7]: 0.0308 s⁻¹; kon [7]: 424000 M⁻¹ s⁻¹
B4	97%	2.13 nM	–	–	–	–	–	–	–	–	–	–	–	% of enfortumab (Average Max MFI) (human nectin-4 on cells [8]): 100%; Average Max MFI (human nectin-4 on cells [8]): 91000 MFI; EC50 (human nectin-4 on cells [8]): 0.05 nM; % of enfortumab (Average Max MFI) (human nectin-4 on cells [9]): 100%; Average Max MFI (human nectin-4 on cells [9]): 1.1e+06 MFI; EC50 (human nectin-4 on cells [9]): 0.11 nM; EC50 (human nectin-4 on cells [10]): 0.06 nM
B5	136%	2.68 nM	0.0553 nM	0.0825 nM	1.03 nM	0.000437 s⁻¹	424000 M⁻¹ s⁻¹	0.986 nM	0.000426 s⁻¹	432000 M⁻¹ s⁻¹	5.28 nM	0.000903 s⁻¹	171000 M⁻¹ s⁻¹	–
B6	112%	2.8 nM	0.0657 nM	0.0994 nM	3.94 nM	0.00346 s⁻¹	878000 M⁻¹ s⁻¹	3.1 nM	0.0033 s⁻¹	1.06e+06 M⁻¹ s⁻¹	31.3 nM	0.0199 s⁻¹	636000 M⁻¹ s⁻¹	–
B7	113%	1.43 nM	–	–	–	–	–	–	–	–	–	–	–	% of enfortumab (Average Max MFI) (human nectin-4 on cells [8]): 95.7%; Average Max MFI (human nectin-4 on cells [8]): 87000 MFI; EC50 (human nectin-4 on cells [8]): 0.06 nM; % of enfortumab (Average Max MFI) (human nectin-4 on cells [9]): 87.2%; Average Max MFI (human nectin-4 on cells [9]): 920000 MFI; EC50 (human nectin-4 on cells [9]): 0.19 nM; EC50 (human nectin-4 on cells [10]): 0.05 nM
